± gives the uncertainty stated by the source.
B1: Homeobox protein SIX3, residues 212 to 262; numbered along this chain, O95343 (parent)
chain: CFKERTRSLLREWYLQDPYPNPSKKRELAQATGLTPTQVGNWFKNRRQRDR

Variants of: B1
Experiment: abundance fitness (aPCA) (normalised: wild type 0, dead -1); higher = more abundant; growth selection in yeast, the domain comes from the species named
Details: Homo sapiens

Abundance fitness of substitutions, site by site:
N21: K 0.23 ± 0.091 | G -0.042 ± 0.057 | Y -0.873 ± 0.1 | R -0.351 ± 0.057
C1: E -0.342 ± 0.49 | S -0.121 ± 0.18 | W -0.251 ± 0.16 | G -0.359 ± 0.14 | I 0.874 ± 0.28
L9: T -0.138 ± 0.054 | K -0.226 ± 0.073 | N -0.8 ± 0.15 | V -0.071 ± 0.052 | P -0.644 ± 0.1 | I -0.095 ± 0.084 | D -0.825 ± 0.13
P18: A -0.226 ± 0.049 | S -0.474 ± 0.055 | L -0.903 ± 0.17 | M -0.501 ± 0.11 | G -0.906 ± 0.085 | I -0.487 ± 0.13 | Q -0.286 ± 0.18
T37: W -0.441 ± 0.074 | I -0.184 ± 0.044 | N -0.27 ± 0.12 | C -0.051 ± 0.094 | A -0.11 ± 0.072 | P -0.416 ± 0.096 | V -0.091 ± 0.075
K44: V -0.48 ± 0.048 | F -0.452 ± 0.1 | N 0.017 ± 0.11 | R -0.115 ± 0.044 | W -0.623 ± 0.21 | Y -0.496 ± 0.17 | M -0.505 ± 0.2 | D -0.356 ± 0.054
T35: Q -0.252 ± 0.21 | L -0.778 ± 0.069 | Y -0.826 ± 0.12 | C -0.645 ± 0.12 | M -0.715 ± 0.067 | N -0.259 ± 0.13 | W -0.848 ± 0.17 | K -0.726 ± 0.14 | S -0.044 ± 0.055
L34: K -0.56 ± 0.089 | H -0.502 ± 0.33 | T -0.73 ± 0.21 | P -0.75 ± 0.21 | C -0.834 ± 0.093 | N -0.918 ± 0.18 | R -0.847 ± 0.065
K24: F -0.672 ± 0.094 | G -0.417 ± 0.068 | Y -0.709 ± 0.2 | W -0.896 ± 0.13 | Q -0.112 ± 0.093 | L -0.366 ± 0.084 | V -0.101 ± 0.053 | E -0.364 ± 0.092 | S -0.193 ± 0.06 | H -0.219 ± 0.096
P22: C -0.359 ± 0.21 | Y -0.102 ± 0.12 | W 0.125 ± 0.087 | K -0.445 ± 0.078 | Q -0.212 ± 0.094 | L 0.156 ± 0.038 | S -0.107 ± 0.05
S23: W -0.729 ± 0.15 | K -0.512 ± 0.19 | Y -0.761 ± 0.23 | R -0.551 ± 0.074
F2: E 0.037 ± 0.062 | H -0.083 ± 0.052 | C -0.315 ± 0.092 | A -0.183 ± 0.06 | Y 0.079 ± 0.093 | L -0.022 ± 0.067 | D 0.361 ± 0.076
E12: W -0.185 ± 0.11 | L -0.426 ± 0.06 | T -0.285 ± 0.056
W42: V -0.986 ± 0.078 | A -0.793 ± 0.052 | G -0.85 ± 0.098 | C -0.901 ± 0.36 | E -0.893 ± 0.098 | T -0.461 ± 0.21 | D -0.722 ± 0.29 | I -0.897 ± 0.42
Q48: L -0.225 ± 0.057 | S -0.124 ± 0.051 | T -0.242 ± 0.082 | Y -0.055 ± 0.13 | C -0.147 ± 0.095 | K 0.177 ± 0.087
Q38: G -0.761 ± 0.1 | W -0.774 ± 0.081 | H -0.81 ± 0.23 | S -0.676 ± 0.077 | F -0.663 ± 0.43
E27: L -0.515 ± 0.079 | I -0.486 ± 0.22 | T -0.668 ± 0.2 | D -0.253 ± 0.16 | H -0.446 ± 0.3 | V -0.593 ± 0.095 | P -0.785 ± 0.18
R26: Y -0.286 ± 0.13 | H 0.047 ± 0.084 | T -0.091 ± 0.092 | D -0.667 ± 0.32 | S -0.045 ± 0.042 | P -0.889 ± 0.1 | V 0.047 ± 0.049
F43: C -0.755 ± 0.096 | M -0.782 ± 0.18 | K -0.92 ± 0.16 | I -0.679 ± 0.47 | N -0.621 ± 0.24 | S -0.837 ± 0.073 | E -0.883 ± 0.16 | D -0.816 ± 0.35
Y14: S -0.667 ± 0.066 | R -0.849 ± 0.075 | E -0.893 ± 0.1 | K -0.81 ± 0.14 | L -0.828 ± 0.056 | C -0.822 ± 0.17 | T -0.946 ± 0.062 | H -0.951 ± 0.1
Q16: I 0.251 ± 0.1 | Y -0.382 ± 0.068 | F -0.109 ± 0.099 | M 0.13 ± 0.1
N45: C -0.396 ± 0.069 | P -0.967 ± 0.23 | W -0.655 ± 0.1 | E -0.192 ± 0.098 | S -0.283 ± 0.045
Q30: I 0.228 ± 0.087 | Y -0.314 ± 0.099 | F -0.284 ± 0.065 | S -0.044 ± 0.039 | R -0.329 ± 0.05 | V -0.163 ± 0.054 | H -0.149 ± 0.048
L15: M -0.309 ± 0.2 | C 0.756 ± 0.27 | A 0.358 ± 0.093 | S -0.568 ± 0.32
Y19: L -0.352 ± 0.058 | H -0.337 ± 0.14 | R -0.184 ± 0.045 | G -0.849 ± 0.07 | N -0.313 ± 0.11 | C -0.308 ± 0.082 | M -0.292 ± 0.11 | S -0.514 ± 0.076 | Q -0.426 ± 0.088
G33: H -0.542 ± 0.12 | E -0.915 ± 0.12 | A -0.674 ± 0.1 | P -0.746 ± 0.16 | D -0.412 ± 0.079 | R -0.613 ± 0.057 | Y -0.978 ± 0.28 | S -0.555 ± 0.052 | V -0.779 ± 0.077 | T -0.766 ± 0.17
R7: M -0.128 ± 0.11 | E -0.181 ± 0.11 | S 0.006 ± 0.078 | P -0.702 ± 0.18
R46: T -0.117 ± 0.073 | I -0.748 ± 0.25 | F -0.63 ± 0.083 | E -0.167 ± 0.13 | K 0.144 ± 0.097 | V -0.635 ± 0.086 | W -0.817 ± 0.14 | P -0.611 ± 0.2 | N -0.456 ± 0.24
D50: S -0.491 ± 0.074 | C -0.678 ± 0.064 | L -0.64 ± 0.057 | N -0.747 ± 0.19 | M -0.799 ± 0.25 | I -0.737 ± 0.11 | W -1.17 ± 0.4
D17: K -0.665 ± 0.12 | C -0.78 ± 0.27 | R -0.907 ± 0.13 | N -0.599 ± 0.097 | V -0.878 ± 0.11 | F -0.82 ± 0.39 | P -0.753 ± 0.19
R47: H -0.617 ± 0.092 | V -0.586 ± 0.051 | I -0.613 ± 0.093 | F -0.548 ± 0.14 | T -0.84 ± 0.056
R51: W -0.309 ± 0.14 | F -0.18 ± 0.33 | N -0.267 ± 0.26 | V -0.441 ± 0.18 | A -0.031 ± 0.11
A31: C -0.296 ± 0.095 | K -0.094 ± 0.094 | E -0.076 ± 0.048 | M -0.087 ± 0.078 | P -0.892 ± 0.27 | Y -0.349 ± 0.069 | F -0.749 ± 0.18 | D -0.475 ± 0.12 | H -0.062 ± 0.11
R49: W -0.462 ± 0.07 | L -0.388 ± 0.057 | H -0.371 ± 0.22 | N -0.221 ± 0.19 | E 0 ± 0.042 | I -0.216 ± 0.14 | K 0.025 ± 0.073 | P -0.844 ± 0.23
T32: L -0.409 ± 0.072 | F -0.922 ± 0.26 | R -0.87 ± 0.1 | P -0.802 ± 0.2 | S -0.43 ± 0.059
P36: D -0.638 ± 0.19 | G -0.596 ± 0.043 | A -0.226 ± 0.09 | R -0.307 ± 0.049 | Q -0.235 ± 0.12 | H -0.305 ± 0.13 | W -0.536 ± 0.1
L28: H -0.778 ± 0.26 | D -0.805 ± 0.22 | M 0.029 ± 0.054 | F -0.07 ± 0.067 | I -0.162 ± 0.14 | T -0.876 ± 0.24
E4: C -0.685 ± 0.21 | K -0.152 ± 0.14 | A -0.931 ± 0.2 | S -0.136 ± 0.065 | Y -0.441 ± 0.28 | D -0.532 ± 0.47 | N -0.357 ± 0.42 | L -0.605 ± 0.17 | V -0.651 ± 0.071 | M -0.178 ± 0.25
R11: A -0.131 ± 0.053 | F -0.061 ± 0.073 | K -0.138 ± 0.093 | M 0.077 ± 0.065 | D -0.22 ± 0.058 | G -0.302 ± 0.054 | T 0.106 ± 0.077 | C -0.392 ± 0.16
W13: F -0.545 ± 0.2 | H -0.338 ± 0.15 | N 0.097 ± 0.081 | Y -0.007 ± 0.056 | P -0.747 ± 0.16 | C -0.08 ± 0.059 | I -0.153 ± 0.13 | V -0.075 ± 0.052
T6: V 0.057 ± 0.046 | C -0.533 ± 0.2 | H 0.086 ± 0.31 | Y -0.289 ± 0.3 | A -0.268 ± 0.078 | N -0.409 ± 0.21 | G -0.192 ± 0.082 | S -0.354 ± 0.091 | K -0.513 ± 0.26 | L -0.16 ± 0.059
K3: H -0.72 ± 0.4 | I -0.362 ± 0.18 | E 0.074 ± 0.062 | P -0.39 ± 0.071
G40: N 0.131 ± 0.099 | M -0.621 ± 0.12 | E -0.099 ± 0.049 | V -0.6 ± 0.076 | L -0.731 ± 0.078
K25: A -0.326 ± 0.057 | L -0.061 ± 0.063 | Y -0.316 ± 0.1 | C -0.103 ± 0.097 | D -0.753 ± 0.062 | M 0.004 ± 0.09 | G -0.579 ± 0.1 | V -0.019 ± 0.044
L10: S -0.647 ± 0.098 | W -1.03 ± 0.14 | P -0.872 ± 0.093 | M -0.381 ± 0.11 | Y -0.561 ± 0.36 | R -0.93 ± 0.077 | F -0.824 ± 0.2
N41: I -0.627 ± 0.24 | D -0.497 ± 0.2 | L -0.516 ± 0.12
V39: F -0.848 ± 0.25 | R -0.873 ± 0.064 | L -0.84 ± 0.08
P20: W -1.13 ± 0.18 | Q -0.812 ± 0.39 | V -0.477 ± 0.081 | N -0.912 ± 0.31 | E -0.756 ± 0.12 | R -0.819 ± 0.062 | M -0.663 ± 0.17 | A -0.425 ± 0.14
A29: C -0.588 ± 0.24 | P -0.911 ± 0.25 | E -0.888 ± 0.16 | K -0.856 ± 0.24 | W -0.704 ± 0.16 | D -0.93 ± 0.41 | T -0.76 ± 0.26
R5: Q -0.317 ± 0.093 | D -0.18 ± 0.16 | W -0.369 ± 0.12 | G -0.102 ± 0.083 | T -0.148 ± 0.091 | Y -0.455 ± 0.24 | I -0.418 ± 0.23 | L -0.283 ± 0.1

Source: the Human Domainome abundance scans (Beltran et al. 2025)
